Experimental data published in the supplement of paper PMC12042874.
± gives the uncertainty stated by the source.

Test: amyloid nucleation score (Sup35N fusion, yeast selection) (log enrichment); library NNK3; higher = more nucleation; inactive = no reads after selection
How it was run: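 Nucleation score is defined as the DiMSum log enrichment of output over input reads, with centring on the mode score of non-aggregating sequences. A minimum of 100 input reads was required for each sequence. Reads came from Illumina sequencing of plasmid inserts from psi-negative yeast expressing Sup35N fused to peptides of 20 random codons, induced with 100 μM copper sulfate for 24 hours and grown 7 days at 30°C on medium lacking adenine and uracil.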

| Substance | amyloid nucleation score |
| --- | --- |
| VVVCNRIVNSSEFRCSYTRK | 1.73 ± 0.09 |
| VVVKKSVVDAWSAYYFRLFV | inactive |
| VWGYSMYVLQIWERYSSNV | 1.01 ± 0.13 |
| VWIRRTCDFNQYRESDLLIR | inactive |
| VWNVQSFQ | inactive |
| VWRAWAINGTATWCLIGDHG | inactive |
| VWRSNF | inactive |
| VWSVHSHTQPMHSWSVRSAG | inactive |
| VWTGHCMASFVRFTCSVVDD | inactive |
| VWVSVWVVLTAV | inactive |
| VWVVV | inactive |
| VYAVIDWRDLCF | inactive |
| VYCLAECYRIMRYAPFQVV | inactive |
| VYDDSTIDT | inactive |
| VYDVSQVGLSRSSFFGAVQA | inactive |
| VYECFSSWTWSWVCQCQAVF | inactive |
| VYFENSGFTTVTREACLY | inactive |
| VYFHSGSARFNTGTQL | inactive |
| VYFRFYNL | 1.36 ± 0.073 |
| VYGLMIIWVIVLYPV | inactive |
| VYPWFA | inactive |
| VYRLEVDISTILEGWSG | inactive |
| VYRLFRMYILTGGLNVNGGR | inactive |
| VYSSVEFCISEKTHLKVWVL | inactive |

| Substance | amyloid nucleation score |
| --- | --- |
| VYTRSGHV | -0.112 ± 1.3 |
| VYVSYGTFWMSKVWWCDKPG | inactive |
| VYYVNS | 0.492 ± 0.18 |
| WAFSVKKWRTVLRKCILQWG | inactive |
| WAPLQALSFGK | inactive |
| WAVCKAHDVSVDTDYYSSTG | 0.302 ± 0.45 |
| WCAWAVTCLTGVISRPLHES | 0.042 ± 0.43 |
| WCESDVMDFGSYFADFLS | inactive |
| WCFWNSC | inactive |
| WCGVSLVL | inactive |
| WCLSCVLTNIRVRIPNRTVV | inactive |
| WCMFMMSNWRVRPADLFCIS | inactive |
| WCNVRYLVDMRFFTTVGVKL | inactive |
| WDSWESYFASHHSF | inactive |
| WEFAGVVYEWGVWKSVSGYG | 0.336 ± 0.3 |
| WEHLGETYGVFMSTEDRESG | inactive |
| WELMCKALGRGRRCWYKCFL | inactive |
| WEWVRPFFLLGYAPEPNITI | 0.232 ± 0.48 |
| WFSSKRDLR | inactive |
| WFVQLSRMWFYANGNCPV | inactive |
| WFYVIGTVMWYSLNAGYYMW | inactive |
| WGDIEVFFSYVVYLSIWRES | inactive |
| WGGSVRYKVSRICLGQCERE | inactive |
| WGILW | 0.482 ± 0.15 |

| Substance | amyloid nucleation score |
| --- | --- |
| WGLMIWSWPYMFCTLLPASR | inactive |
| WGRGLRPTLVGMFARAHRGA | inactive |
| WGWPSFTCTWLCRRSSCRWP | inactive |
| WHIEVC | inactive |
| WHSKWVWNHNWLGSINCRYE | inactive |
| WIDRQLKRGL | inactive |
| WIGMYSGETAFLSLPVTQQI | inactive |
| WIHRMLSSGVDSPRNTSLWT | inactive |
| WIHSGSSHWLNACDRMDMTK | -0.753 ± 1.3 |
| WIIEGSRLRC | inactive |
| WILLGNGSMNMKSCFMLLFV | inactive |
| WIMPLDQ | inactive |
| WINGTISDC | inactive |
| WIPHPEFGVSIGIV | inactive |
| WIVKL | inactive |
| WKATNNAASVFGDLYGYYAN | inactive |
| WKDWKLRPNY | inactive |
| WKLASVFAVSMR | inactive |
| WKTRHRVEVWASFLLSYQTG | -0.551 ± 0.62 |
| WLARTRRVVLRNLVLAVTCI | inactive |
| WLDWSAGHCGYVKLLW | inactive |
| WLFNYRILCLSVMWFTKSIE | inactive |
| WLLENVPGITLAFV | inactive |
| WLLFDPVGVVKQSLVARNSY | inactive |

| Substance | amyloid nucleation score |
| --- | --- |
| WLNYCNCV | 1.91 ± 0.078 |
| WLPPRVMLFTPLRQWLYR | inactive |
| WLQISIEKTTKFPSKMNH | 1.58 ± 0.11 |
| WLRLSL | inactive |
| WLVFITPYLSLSCLSLINKI | inactive |
| WLVSRIVHSLVVVIFDKDEG | inactive |
| WMFRSAVFYGYVYALGCMRS | 0.924 ± 0.22 |
| WMPQFCLRCSSVV | inactive |
| WNGKGLSSGTLSISRKT | inactive |
| WNMNYVQFDGNVLVNAD | inactive |
| WNMVYFLLQFSIDASLGT | inactive |
| WNNRWVCNLSTSSGMNLLDR | inactive |
| WNPCVHTLGI | inactive |
| WNSLMAK | inactive |
| WPFHWSFSFVISMYMSWGNS | inactive |
| WPGLRCDSGQDKRNMF | -0.039 ± 1 |
| WPKLVGCYRGSKGINGRVLY | inactive |
| WQPDTVKGEVLLRVGTMLSV | inactive |
| WQRNFEWIYDPLRAKSWNSI | -0.558 ± 0.76 |
| WQSRTKP | inactive |
| WQVVGYKNLDLCVNLATTDW | inactive |
| WRFGRVFDWGRLHLGVDRCR | inactive |
| WRGYPFAPVFYLI | inactive |
| WRKTSVMFADSGIV | inactive |

| Substance | amyloid nucleation score |
| --- | --- |
| WSDIIVGIRTNCDVLFSGAY | inactive |
| WSDLRI | inactive |
| WSFQLSVLFVCNLITYNCV | 1.68 ± 0.069 |
| WSIRMW | inactive |
| WSNTFVWLSINLSYIV | inactive |
| WSPWHENWGLGMLQLKTSLW | inactive |
| WSSSW | inactive |
| WSSTRLPSMSPCGFIHQGYI | inactive |
| WSTPWMWVRFGRIDHCSLGV | inactive |
| WSVSTQFPCFMSGSIGYNMS | inactive |
| WSYIVLTVLTWVACCTFWFV | -0.436 ± 0.49 |
| WTKSFSSNSTQVSQYYSFNL | inactive |
| WTLARFTSD | inactive |
| WTMSKLNGRCTSCPHLARLS | inactive |
| WTNIRFAF | inactive |
| WTRNTKLVEIIKMYYQNVNL | inactive |
| WVDGYFNLTENVPAVVGK | inactive |
| WVFVRMMVELINMTAAFAVS | inactive |
| WVHFYDTMGDM | inactive |
| WVHRIAS | inactive |
| WVIACVMRYVVFKNKVMIVR | inactive |
| WVIIIYRYLFRNISAKQSRL | inactive |
| WVKPSSFWGFERNTYDIYIG | -0.176 ± 0.62 |
| WVNFRSPFLNGANA | -0.686 ± 0.68 |

| Substance | amyloid nucleation score |
| --- | --- |
| WVNTGNQRLYRQTCCGTLVR | inactive |
| WVRRYV | inactive |
| WVTYWASRVFE | inactive |
| WVWRSNSPGAEKWTLLTKTL | inactive |
| WVYDSTIRHHH | inactive |
| WWADA | inactive |
| WWKSLLTRWRCLPPRK | -0.307 ± 0.62 |
| WWSKRLKRLVNCGLR | inactive |
| WYGDNRGIMYVLGSRINWRY | 1.34 ± 0.087 |
| WYHGKWYLDLNYVVPVTQWK | inactive |
| WYHSQNVINCRQSVVTMKHN | inactive |
| WYRYSGGYNWP | 0.396 ± 0.29 |
| WYYCRLRACVRH | inactive |
| YAAEYYVVQVIG | inactive |
| YAAIPQIVINVLVGGTNASC | 2.1 ± 0.069 |
| YAATRW | inactive |
| YAFKVCS | inactive |
| YALIQIPKYRLGCRGWTMRG | 0.172 ± 0.27 |
| YALSVLVSRYQWSGWHYLYP | inactive |
| YAWGYSSWETRN | inactive |
| YCAYLLRSLWLGTAWEWWRQ | inactive |
| YCCAKL | inactive |
| YCFNLFRSARRGDGCAMIGC | inactive |
| YCGKCRAFCCQSCPIRVRLV | inactive |

| Substance | amyloid nucleation score |
| --- | --- |
| YCHILTLATVMKPTFERAPS | inactive |
| YCSVLELKSYLTLSLSKWKW | inactive |
| YCTWAYRVYSYSGCTMMIVL | inactive |
| YCYRYGWYHMNEDRIWDVRL | inactive |
| YDDVFFYSWVTFLRQLFDPL | inactive |
| YDGLSSAMGEHIRNNNCLLV | inactive |
| YDKVLRPMVSYYSR | inactive |
| YDMSDMNCRRIW | inactive |
| YDNVVYLIVGHYG | inactive |
| YEIFSVSLR | -0.221 ± 0.9 |
| YEKPCEG | inactive |
| YETYKYLYGFVML | inactive |
| YFFSVLG | inactive |
| YFFVSWFRCMGPILSFTRVV | inactive |
| YFGSV | inactive |
| YFIMSFSLQNFMGSPLNRLG | inactive |
| YFIRVILPFQLTLVVIWYKF | inactive |
| YFLDV | inactive |
